Paper PMC8297783, “Autocrine signaling by receptor tyrosine kinases in urothelial carcinoma of the bladder” (PLoS ONE, 2021)

Test system: FL3 cells
Assay: cell proliferation assay, FL3 cells
Format: cell-based, Human
Settings: 1% FBS, 6 d, added MST1 alone 5 nM, relative to untreated cells

B1: MST1: exogenous cognate ligand of MST1R, added to cells at 5 nM (protein, UniProt P26927 19-711, looked up)
Hepatocyte growth factor-like …: QRSPLNDFQVLRGTELQHLLHAVVPGPWQEDVADAEECAGRCGPLMDCRAFHYNVSSHGCQLLPWTQHSPHTRLRRSGRCDLFQKKDYVRTCIMNNGVGYRGTMATTVGGLPCQAWSHKFPNDHKYTPTLRNGLEENFCRNPDGDPGGPWCYTTDPAVRFQSCGIKSCREAACVWCNGEEYRGAVDRTESGRECQRWDLQHPHQHPFEPGKFLDQGLDDNYCRNPDGSERPWCYTTDPQIEREFCDLPRCGSEAQPRQEATTVSCFRGKGEGYRGTANTTTAGVPCQRWDAQIPHQHRFTPEKYACKDLRENFCRNPDGSEAPWCFTLRPGMRAAFCYQIRRCTDDVRPQDCYHGAGEQYRGTVSKTRKGVQCQRWSAETPHKPQFTFTSEPHAQLEENFCRNPDGDSHGPWCYTMDPRTPFDYCALRRCADDQPPSILDPPDQVQFEKCGKRVDRLDQRRSKLRVVGGHPGNSPWTVSLRNRQGQHFCGGSLVKEQWILTARQCFSSCHMPLTGYEVWLGTLFQNPQHGEPSLQRVPVAKMVCGPSGSQLVLLKLERSVTLNQRVALICLPPEWYVVPPGTKCEIAGWGETKGTGNDTVLNVALLNVISNQECNIKHRGRVRESEMCTEGLLAPVGACEGDYGGPLACFTHNCWVLEGIIIPNRVCARSRWPAVFTRVSVFVDWIHKVMRLG
B1 was tested, and the proliferation rate was “significantly increased proliferation rate”.
